According to paper PMC8896794 (Science Advances, 2022):

How the values were obtained:
[1] = target: T1, full-length mouse TSHR on DAP.3 cells (mTSHR alone) (Mus musculus, UniProt P47750); assay: flow cytometry on cells; DAP.3 cells stably expressing mTSHR alone or mTSHR and I-A^k stained with K1-18 mAb; DAP.3 parental cells as control
T1 construct: thyroid-stimulating hormone receptor, mouse, cDNA NM_011648.5, full length

[2] = target: T2, full-length mouse TSHR with I-A^k on DAP.3 cells (Mus musculus; I-Ak, UniProt P47750;P01910;P06343); assay: as above
T2 construct: thyroid-stimulating hormone receptor, mouse, cDNA NM_011648.5, full length; mouse MHC class II I-A^k alpha chain, cDNA V00832.1; mouse MHC class II I-A^k beta chain, cDNA M13538.1; co-expressed in one cell; also called mTSHR + I-A^k; mTSHR and I-A^k; copies: + +
T2 sequence (P47750 22-764, chain 1 of 3): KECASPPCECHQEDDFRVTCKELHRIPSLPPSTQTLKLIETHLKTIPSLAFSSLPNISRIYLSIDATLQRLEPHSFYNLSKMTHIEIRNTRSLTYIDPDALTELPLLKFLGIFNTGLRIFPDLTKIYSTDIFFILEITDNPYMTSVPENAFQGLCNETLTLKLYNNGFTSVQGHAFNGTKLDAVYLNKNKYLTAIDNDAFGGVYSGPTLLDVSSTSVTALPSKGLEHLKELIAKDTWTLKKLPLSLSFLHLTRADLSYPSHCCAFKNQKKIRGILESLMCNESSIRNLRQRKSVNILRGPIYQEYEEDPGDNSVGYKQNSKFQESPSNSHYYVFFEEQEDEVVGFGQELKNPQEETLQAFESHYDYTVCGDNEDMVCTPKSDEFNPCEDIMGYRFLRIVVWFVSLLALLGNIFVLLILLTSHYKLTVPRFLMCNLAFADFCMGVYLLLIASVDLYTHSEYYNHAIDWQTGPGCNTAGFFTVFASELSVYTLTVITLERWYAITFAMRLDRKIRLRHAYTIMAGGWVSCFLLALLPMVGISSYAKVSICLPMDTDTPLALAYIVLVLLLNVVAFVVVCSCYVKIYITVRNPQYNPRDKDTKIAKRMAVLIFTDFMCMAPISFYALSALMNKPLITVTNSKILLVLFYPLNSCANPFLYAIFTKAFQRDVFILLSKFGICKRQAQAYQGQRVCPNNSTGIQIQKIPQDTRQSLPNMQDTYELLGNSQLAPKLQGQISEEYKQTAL
T2 sequence (P01910 24-256, chain 2 of 3): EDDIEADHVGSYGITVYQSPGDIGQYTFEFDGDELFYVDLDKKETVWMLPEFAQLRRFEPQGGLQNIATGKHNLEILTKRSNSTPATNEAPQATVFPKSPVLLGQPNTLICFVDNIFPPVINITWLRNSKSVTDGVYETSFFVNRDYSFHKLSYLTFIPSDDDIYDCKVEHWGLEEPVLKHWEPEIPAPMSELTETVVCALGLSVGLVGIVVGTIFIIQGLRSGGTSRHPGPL
T2 sequence (P06343 28-263, chain 3 of 3): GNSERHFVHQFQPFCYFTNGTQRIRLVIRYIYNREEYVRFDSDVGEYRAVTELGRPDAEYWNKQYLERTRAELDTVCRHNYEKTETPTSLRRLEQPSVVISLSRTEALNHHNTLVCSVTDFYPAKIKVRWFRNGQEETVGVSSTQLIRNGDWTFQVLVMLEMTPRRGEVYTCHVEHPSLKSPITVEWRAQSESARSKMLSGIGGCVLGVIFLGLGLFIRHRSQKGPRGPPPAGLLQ

[3] = target: T3, human TSHR extracellular domain complexed with HLA-DP5 (Homo sapiens; HLA-DPA1*02:02/DPB1*05:01, UniProt P16473;IMGT, strain); assay: flow cytometry on cells; HEK293T cells transfected with TSHR or TSHR ECD with or without HLA-DP (pME18S, with GFP), incubated with the human anti-TSHR mAb, then APC-conjugated anti-human IgG; FACSCalibur; MFI minus that of GFP-negative cells
T3 construct: human TSHR extracellular domain (ECD), residues 22 to 282; the ECD has no membrane anchor of its own and is seen on the cell surface with HLA-DP5; also called TSHR ECD with HLA-DP5; TSHR ECD/HLA-DP complex; source: HEK293T, co-transfected (pME18S), on cells; not shown: Flag, N-terminal, kept; copies: + +

[4] = target: T4, full-length human TSHR complexed with HLA-DP5 (HLA-DPA1*02:02/HLA-DPB1*05:01) (Homo sapiens; …, UniProt P16473;IMGT, strain); assay: as above
T4 construct: thyroid-stimulating hormone receptor (TSHR), human, cDNA AY429111.1, full length; co-expressed in one cell; also called TSHR with HLA-DP5; TSHR/HLA-DP5 complex; source: HEK293T, co-transfected (pME18S), on cells; copies: + +

[5] = target: T5, full-length human thyroid-stimulating hormone receptor, transfected alone (Homo sapiens, UniProt P16473); assay: as above
T5 construct: thyroid-stimulating hormone receptor (TSHR), human, cDNA AY429111.1, full length; no MHC class II co-transfected; also called TSHR; human TSHR; source: HEK293T, transfected (pME18S), on cells

[6] = target: T6, full-length human TSHR cotransfected with HLA-DP4 (HLA-DPA1*01:03/HLA-DPB1*04:01) (Homo sapiens; HLA-DPA1*01:03/DPB1*04:01, UniProt P16473;IMGT, strain); assay: as above
T6 construct: thyroid-stimulating hormone receptor (TSHR), human, cDNA AY429111.1, full length; co-expressed in one cell; also called TSHR with HLA-DP4; source: HEK293T, co-transfected (pME18S), on cells; copies: + +

porcine TSHR = target: T7, porcine TSHR (Sus scrofa, UniProt Q8SPP9); assay: flow cytometry on cells; HEK293T cells transfected with pTSHR and GFP, mixed with PBS or purified mouse serum IgGs, washed, stained with M22 mAb, then APC-conjugated anti-human IgG
T7 construct: thyroid-stimulating hormone receptor, porcine, cDNA NM_214297.1; also called pTSHR; source: HEK293T, transfected (with GFP), on cells
T7 sequence (Q8SPP9 22-764): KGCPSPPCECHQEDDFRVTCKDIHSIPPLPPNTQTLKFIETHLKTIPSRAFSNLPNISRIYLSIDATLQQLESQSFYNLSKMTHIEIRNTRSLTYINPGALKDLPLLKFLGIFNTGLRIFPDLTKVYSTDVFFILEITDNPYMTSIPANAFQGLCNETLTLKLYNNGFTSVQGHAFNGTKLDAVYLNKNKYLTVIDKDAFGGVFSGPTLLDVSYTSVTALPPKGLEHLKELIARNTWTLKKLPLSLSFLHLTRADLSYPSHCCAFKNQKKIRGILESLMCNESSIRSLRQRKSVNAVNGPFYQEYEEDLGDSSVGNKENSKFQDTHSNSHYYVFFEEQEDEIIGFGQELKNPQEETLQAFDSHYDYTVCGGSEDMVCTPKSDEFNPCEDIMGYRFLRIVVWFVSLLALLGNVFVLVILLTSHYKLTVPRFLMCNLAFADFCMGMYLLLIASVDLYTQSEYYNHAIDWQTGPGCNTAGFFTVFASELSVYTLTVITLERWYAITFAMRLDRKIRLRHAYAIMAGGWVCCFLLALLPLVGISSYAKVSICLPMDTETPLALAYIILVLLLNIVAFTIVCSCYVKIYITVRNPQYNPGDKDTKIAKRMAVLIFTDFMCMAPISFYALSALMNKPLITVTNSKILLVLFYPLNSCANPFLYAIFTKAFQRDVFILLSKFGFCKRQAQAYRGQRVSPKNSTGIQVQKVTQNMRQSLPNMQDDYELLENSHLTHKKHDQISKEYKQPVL

T1 sequence (P47750 22-764): as the sequence (P47750 22-764, chain 1 of 3) above

binding result [1] | binding result [2] | binding result [3] | binding result [4] | binding result [5] | binding result [6] | binding result (porcine TSHR) | Binder
binds | binds | binds | binds |  |  |  | K1-18 monoclonal antibody, wild type (antibody, V domains shown, constant region of the λ chain is not described; IgG1; thyroid-stimulating autoantibody (TRAb) from a Graves' disease patient; also called WT K1-18; K1-18 mAb; source: recombinant, V regions synthesized and cloned into pME18S expression vectors) VH: EVQLVQSGAEVKKPGESLKISCKGSGYSFTNYWIGWVRQMPGKGLEWMGIIYPYDSDTRYSPSFEGQVTISADKSIRTAYLHWSSLKASDTAMYYCVRPRDGSYPYDAFDIWGQGTMVTVSS VL: EIVLTQSPGTLSLSPGERATLSCRASQSVSNNYLAWYQQKPGQAPRLLIYGASSRATGIPDRFSGSGSGTDFTLTISRLEPEDFAVYYCQHCGSSLRAFGQGTKVEIK
 |  |  | binds | no binding | no binding |  | germlined K1-18 monoclonal antibody (antibody, V domains shown, constant region of the λ chain is not described; IgG1; also called germlined K1-18 mAb; source: recombinant, mutated from wild-type K1-18 V regions (QuikChange), pME18S expression vectors) VH: EVQLVQSGAEVKKPGESLKISCKGSGYSFTSYWIGWVRQMPGKGLEWMGIIYPGDSDTRYSPSFEGQVTISADKSIRTAYLHWSSLKASDTAMYYCARPRDGSYPYDAFDIWGQGTMVTVSS VL: EIVLTQSPGTLSLSPGERATLSCRASQSVSSSYLAWYQQKPGQAPRLLIYGASSRATGIPDRFSGSGSGTDFTLTISRLEPEDFAVYYCQHCGSSLRAFGQGTKVEIK
 |  |  |  |  |  | binds | M22 thyroid-stimulating monoclonal antibody (antibody, V domains shown, constant region of the λ chain is not described; IgG1; also called M22 mAb; source: recombinant, V regions synthesized and cloned into pME18S expression vectors) VH: QVQLVQSGAEVKKPGESLKISCRGSGYRFTSYWINWVRQLPGKGLEWMGRIDPTDSYTNYSPSFKGHVTVSADKSINTAYLQWSSLKASDTGMYYCARLEPGYSSTWSVNWGQGTLVTVSS VL: LTVLTQPPSVSGAPRQRVTISCSGNSSNIGNNAVNWYQQLPGKAPKLLIYYDDQLPSGVSDRFSGSRSGTSASLAIRGLQSEDEADYYCTSWDDSLDSQLFGGGTRLTVL
